# Data taken from PMC10816394, “Radiosynthesis and Bioevaluation of ^99mTc-Labeled Isocyanide Ubiquicidin 29-41 Derivatives as Potential Agents for Bacterial Infection Imaging” (International Journal of Molecular Sciences, 2024).
# No end group written: not given here.
# Assays:
# S. aureus-infected mice = tested on: S. aureus-infected mice; set-up: species or system female Kunming mice; conditions: mouse, in vivo
# Protocol: Bacterial infection mouse models were constructed as follows: S. aureus (ATCC 25923) was cultured in a liquid medium at 37 °C for approximately 24 h, washed with PBS (pH 7.4) and diluted to obtain a suspension of 1 × 10^8 CFU/mL. […] The mice were sacrificed with isoflurane anesthesia at 120 min postinjection. […] To evaluate the metabolic properties of [^99mTc]Tc-CN5UBI 29-41, biodistribution studies were carried out in mice infected with S. aureus at 30, 120 and 240 min.
# [1] = assay type: physicochemical; conditions: pH 7.4
# Protocol: The lipophilicities of the ^99mTc-labeled complexes were evaluated by the distribution coefficient. The method for determining the distribution coefficient was as follows: 0.1 mL of the radiolabeled complex (3.7 MBq) was mixed with 0.9 mL of phosphate buffer (0.025 mol/L, pH 7.4) and 1 mL of n-octanol in a 5 mL centrifuge tube. The mixture was shaken on a vortex mixer at room temperature for 3 min and centrifuged at 5000 r/min for 5 min. Aliquots of 0.1 mL of both n-octanol and PBS were collected, and the radioactivity was determined with a γ-counter. The distribution coefficient was calculated as follows: Log D = lg[(counts per minute in n-octanol/counts per minute in PBS)]. Each group of measurements was carried out five times in parallel. The final results are expressed as the log D ± SD.
Substance,Abscess/Blood ratio (S. aureus-infected mice),Abscess/Muscle ratio (target-to-nontarget ratio) (S. aureus-infected mice),"Log D ± SD, [^99mTc][Tc(Ⅴ)N]^2+ Core [1]","Log D ± SD, [^99mTc][Tc(Ⅰ)]^+ Core [1]"
"[^99mTc]Tc(CO)3-CN7UBI 29-41: ^99mTc complex of ligand CN7UBI 29-41 with the [^99mTc][Tc(I)(CO)3(H2O)3]^+ core (TGRAKRRMQYNRR; also: CN7 chelator, position not given here, 99mTc(CO)3 complex; UniProt P62861 103-115, looked up, fragment)",0.69 ± 0.08,2.43 ± 0.49,–,–
"[^99mTc]TcN-CN5UBI 29-41: ^99mTc complex of ligand CN5UBI 29-41 with the [^99mTc][Tc(V)N]^2+ core (TGRAKRRMQYNRR; also: CN5 chelator, position not given here, 99mTc complex with [99mTc][Tc(V)N]2+ core; UniProt P62861 103-115, looked up, fragment)",0.69 ± 0.22,2.10 ± 0.80,−2.71 ± 0.03,–
"[^99mTc]TcN-CN8UBI 29-41: ^99mTc complex of ligand CN8UBI 29-41 with the [^99mTc][Tc(V)N]^2+ core (TGRAKRRMQYNRR; also: CN8 chelator, position not given here, 99mTc complex with [99mTc][Tc(V)N]2+ core; UniProt P62861 103-115, looked up, fragment)",0.72 ± 0.13,2.81 ± 0.55,−2.55 ± 0.03,–
"[^99mTc]Tc-CN7UBI 29-41: ^99mTc complex of ligand CN7UBI 29-41 with the [^99mTc]Tc(I)^+ core (TGRAKRRMQYNRR; also: CN7 chelator, position not given here, 99mTc(I) complex; UniProt P62861 103-115, looked up, fragment)",0.56 ± 0.09,2.52 ± 0.56,–,−2.57 ± 0.03
"[^99mTc]Tc(CO)3-CN9UBI 29-41: ^99mTc complex of ligand CN9UBI 29-41 with the [^99mTc][Tc(I)(CO)3(H2O)3]^+ core (TGRAKRRMQYNRR; also: CN9 chelator, position not given here, 99mTc(CO)3 complex; UniProt P62861 103-115, looked up, fragment)",0.75 ± 0.12,2.60 ± 0.68,–,–
"[^99mTc]Tc(CO)3-CN6UBI 29-41: ^99mTc complex of ligand CN6UBI 29-41 with the [^99mTc][Tc(I)(CO)3(H2O)3]^+ core (TGRAKRRMQYNRR; also: CN6 chelator, position not given here, 99mTc(CO)3 complex; UniProt P62861 103-115, looked up, fragment)",0.73 ± 0.19,2.48 ± 0.45,–,–
"[^99mTc]Tc(CO)3-CN5UBI 29-41: ^99mTc complex of ligand CN5UBI 29-41 with the [^99mTc][Tc(I)(CO)3(H2O)3]^+ core (TGRAKRRMQYNRR; also: CN5 chelator, position not given here, 99mTc(CO)3 complex; UniProt P62861 103-115, looked up, fragment)",0.67 ± 0.15,2.49 ± 0.65,–,–
"[^99mTc]Tc(CO)3-CN8UBI 29-41: ^99mTc complex of ligand CN8UBI 29-41 with the [^99mTc][Tc(I)(CO)3(H2O)3]^+ core (TGRAKRRMQYNRR; also: CN8 chelator, position not given here, 99mTc(CO)3 complex; UniProt P62861 103-115, looked up, fragment)",0.64 ± 0.11,2.42 ± 0.37,–,–
